Three molecules from paper PMC3539426, “Crystal Structure of a 9-Subunit Archaeal Exosome in Pre-Catalytic States of the Phosphorolytic Reaction” (Archaea, 2012) can be followed below.

The chains are these.
T1: Rrp42 (S. solfataricus exosome RNase PH subunit) (S. solfataricus, UniProt Q9UXC0 1-275)
T1 construct: Rrp42, RNase PH subunit of the Sulfolobus solfataricus exosome; Three copies stand in the 9-subunit complex; source: E. coli, recombinantly expressed, purified
T1 sequence: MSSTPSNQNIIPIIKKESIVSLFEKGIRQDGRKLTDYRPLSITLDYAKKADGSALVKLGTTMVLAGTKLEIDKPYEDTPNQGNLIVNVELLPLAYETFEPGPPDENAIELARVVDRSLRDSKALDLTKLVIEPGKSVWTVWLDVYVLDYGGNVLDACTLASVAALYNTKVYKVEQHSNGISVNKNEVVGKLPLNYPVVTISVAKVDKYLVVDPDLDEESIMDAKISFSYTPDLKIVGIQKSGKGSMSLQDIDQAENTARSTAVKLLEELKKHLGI

B1: Rrp41^D182A (S. solfataricus exosome RNase PH subunit Rrp41 with the D182A point mutation) (enzyme)
chain: MREMLQVERPKLILDDGKRTDGRKPDELRSIKIELGVLKNADGSAIFEMGNTKAIAAVYGPKEMHPRHLSLPDRAVLRVRYHMTPFSTDERKNPAPSRREIELSKVIREALESAVLVELFPRTAIDVFTEILQADAGSRLVSLMAASLALADAGIPMRDLIAGVAVGKADGVIILDLNETEAMWGEADMPIAMMPSLNQVTLFQLNGSMTPDEFRQAFDLAVKGINIIYNLEREALKSKYVEFKEEGV
notes: Rrp41, RNase PH subunit of the Sulfolobus solfataricus exosome, with D182A; Three copies stand in the 9-subunit complex 3*(Rrp41/Rrp42/Rrp4); the construct is not described here; source: E. coli, recombinantly expressed, purified
B2: Rrp4 (S. solfataricus exosome RNA binding protein) (natural protein)
chain: MNMSQSQKIVLQPRSIVVPGELLAEGEFQIPWSPYILKINSKYYSTVVGLFDVKDTQFEVIPLEGSFYYPKINDIVIGLVEDVEIYGWVVDIKAPYKAYLPASNLLGRSINVGEDLRRYLDVGDYVIARIENFDRSIDPVLSVKGKDLGRVSNGIVIDIMPVKVPRVIGKNKSMYETLTSKSGCSIFVANNGRIWATCPSRFSEEILIEAIRKIENESHIKGLTDRIKQFIEEKLGERNASSGETKTNS
notes: Three copies stand in the 9-subunit complex; source: E. coli, recombinantly expressed, purified

For assay [1], the target named is S. solfataricus exosome, nonameric 3*(Rrp41/Rrp42/Rrp4) complex (Saccharolobus solfataricus, UniProt Q9UXC2, D182A). The note with it: 1.8 Å Pi-bound structure (4ba1), 10 mM Pi soak with 1 mM 7mer poly(A) RNA, RNA not visible; also 2.5 Å structure with RNA and Pi (4ba2); Rrp41 active site R99, G137, S138, R139; catalytically inactive.
Assay [2] addresses T1, Rrp42 (S. solfataricus exosome RNase PH …). In words: crystal structure; Rrp4/Rrp41^D182A/Rrp42 crystals, space group P213, one copy of each subunit in the asymmetric unit; soaked with 7 mer poly(A) RNA and Pi; 1.8 Å (Pi bound) and 2.5 Å (RNA and Pi bound). To be noted: both partners purified.
Assay [3] addresses B2. Described as above. To be noted: both partners purified.

On to `O=P(O)(O)O` [Pi, inorganic phosphate], for which the “X-ray crystal structure, crystal soaking” value in assay [1] is “the Pi ion is bound by four residues from the Rrp41 subunit”. Turning to B1, the binding result in assay [2] and in assay [3] was “binds” throughout. As for B2, in assay [2], the binding result is listed as “binds”.
